Measurements reported in patent US20240254222A1 (Bayer, published 2024).

T1: Sema3C (R&D Systems) (Homo sapiens (Human), UniProt Q99985 21-751)
T1 sequence: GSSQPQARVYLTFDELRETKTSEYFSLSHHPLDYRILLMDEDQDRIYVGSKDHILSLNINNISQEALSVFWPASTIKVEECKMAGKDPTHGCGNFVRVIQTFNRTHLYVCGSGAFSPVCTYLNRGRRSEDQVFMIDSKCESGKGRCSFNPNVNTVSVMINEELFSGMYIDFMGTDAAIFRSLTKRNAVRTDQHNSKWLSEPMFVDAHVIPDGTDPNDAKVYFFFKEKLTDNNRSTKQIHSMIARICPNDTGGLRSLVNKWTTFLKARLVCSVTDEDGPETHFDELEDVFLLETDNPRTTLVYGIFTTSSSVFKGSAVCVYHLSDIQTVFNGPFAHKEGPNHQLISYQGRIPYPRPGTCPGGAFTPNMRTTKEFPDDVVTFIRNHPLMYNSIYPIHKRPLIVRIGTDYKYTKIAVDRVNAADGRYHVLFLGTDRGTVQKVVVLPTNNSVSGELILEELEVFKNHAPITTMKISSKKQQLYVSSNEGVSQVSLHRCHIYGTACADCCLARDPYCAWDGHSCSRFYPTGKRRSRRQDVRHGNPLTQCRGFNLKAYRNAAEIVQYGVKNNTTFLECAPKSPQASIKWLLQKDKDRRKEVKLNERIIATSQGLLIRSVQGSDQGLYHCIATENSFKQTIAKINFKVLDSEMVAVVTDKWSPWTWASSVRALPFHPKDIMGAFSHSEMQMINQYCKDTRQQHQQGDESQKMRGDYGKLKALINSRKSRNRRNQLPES

T2: Sema3D (R&D Systems) (Homo sapiens (Human), UniProt O95025 37-777)
T2 sequence: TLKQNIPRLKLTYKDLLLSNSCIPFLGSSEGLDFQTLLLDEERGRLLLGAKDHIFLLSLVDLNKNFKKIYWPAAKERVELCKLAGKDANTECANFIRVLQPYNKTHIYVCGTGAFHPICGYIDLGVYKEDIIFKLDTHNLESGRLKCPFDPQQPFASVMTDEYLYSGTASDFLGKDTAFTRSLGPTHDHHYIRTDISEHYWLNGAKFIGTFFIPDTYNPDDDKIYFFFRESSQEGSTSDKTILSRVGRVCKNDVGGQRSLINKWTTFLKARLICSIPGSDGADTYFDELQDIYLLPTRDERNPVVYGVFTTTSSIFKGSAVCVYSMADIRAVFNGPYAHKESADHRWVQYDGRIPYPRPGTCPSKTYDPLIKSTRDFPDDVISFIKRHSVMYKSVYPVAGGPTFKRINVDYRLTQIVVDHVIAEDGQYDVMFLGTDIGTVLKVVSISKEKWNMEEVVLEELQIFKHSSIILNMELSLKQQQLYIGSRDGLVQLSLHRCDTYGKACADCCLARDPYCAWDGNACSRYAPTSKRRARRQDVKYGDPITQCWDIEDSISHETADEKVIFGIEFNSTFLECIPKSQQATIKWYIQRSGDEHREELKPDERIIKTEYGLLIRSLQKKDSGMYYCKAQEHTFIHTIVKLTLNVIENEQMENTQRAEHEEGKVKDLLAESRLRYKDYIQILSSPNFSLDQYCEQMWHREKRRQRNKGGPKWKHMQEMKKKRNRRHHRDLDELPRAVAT

T3: Human Semaphorin3A-Sema Domain, TPP-19068 (human, UniProt Q14563 21-569)
T3 construct: produced inhouse in HEK293-6E; also called human monovalent Sema3A domain
T3 sequence: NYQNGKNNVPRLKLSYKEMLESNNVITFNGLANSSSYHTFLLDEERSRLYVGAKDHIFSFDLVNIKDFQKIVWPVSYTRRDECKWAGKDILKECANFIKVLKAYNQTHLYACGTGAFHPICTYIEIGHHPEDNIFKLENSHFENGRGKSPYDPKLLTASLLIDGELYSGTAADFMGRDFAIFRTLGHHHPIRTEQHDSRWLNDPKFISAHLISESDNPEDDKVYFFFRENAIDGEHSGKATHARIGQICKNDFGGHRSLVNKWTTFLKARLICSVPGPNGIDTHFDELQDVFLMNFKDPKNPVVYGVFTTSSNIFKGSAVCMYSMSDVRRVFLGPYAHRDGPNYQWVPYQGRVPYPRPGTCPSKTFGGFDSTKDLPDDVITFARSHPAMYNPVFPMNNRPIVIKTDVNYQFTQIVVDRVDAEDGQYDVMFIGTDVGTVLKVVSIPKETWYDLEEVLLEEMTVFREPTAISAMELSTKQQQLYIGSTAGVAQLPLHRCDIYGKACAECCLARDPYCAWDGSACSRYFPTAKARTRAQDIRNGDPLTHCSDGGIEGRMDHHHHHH


Key:
[1] = target: T1, Sema3C (R&D Systems); experiment: ELISA
[2] = target: T2, Sema3D (R&D Systems); experiment: ELISA
[3] = target: T3, Human Semaphorin3A-Sema Domain, …; experiment: SPR, 100 nM TPP-19068, binding experiment
Experimental: To assess the binding kinetics and affinity of anti-Sema3A antibodies as well as their species cross-reactivity profile, binding assays were conducted using surface plasmon resonance (SPR). Binding assays were performed on a Biacore T200 instrument or on a Biacore 8K+ instrument (Cytiva) at 25° C. using assay buffer HBS P+, 300 mM NaCl, 0.75 mM CaCl₂, 2.5 mM MgCl₂, 1 mg/ml BSA, 0.05% NaN₃. Antibodies were captured either via anti-human Fc IgGs (“Human antibody capture kit”, Order No. BR100839, Cytiva) or in case of Fc-tagged analytes by anti-human Fab IgGs (“Human Fab capture kit”, Order No. 28958325, Cytiva) covalently amine coupled to a Series S CM5 sensor chip (Cytiva). The amine coupling was carried out according to the manufacturer's instructions using 1-ethyl-3-(3-dimethylaminopropyl) carbodiimide hydrochloride (EDC), N-hydroxysuccinimide (NHS) and ethanolamine HCl, pH 8.5 (“Amine Coupling Kit” BR-1000-50, Cytiva.). For phage display hits Fc-tagged human and mouse Sema3A was used as analytes in a concentration range from 1.56-200 nM. Human, mouse, cynomolgus, rat, dog and pig monovalent Sema3A domain were used as analytes in a concentration series from […] in multi cycle kinetics mode or in 100 nM for binding analysis only. The sensor surface was regenerated with glycine pH 2.0 after each antigen injection. Obtained sensorgrams were double referenced (subtraction of reference flow cell signal and buffer injection) and were fitted to a 1:1 Langmuir binding model to derive kinetic data using the Biacore T200 Evaluation software.

Row | Binder | binding result [1] | binding result [2] | Kd [3]
1 | TPP-15374 (antibody, human IgG1, lambda, V domains shown, human IgG1; also called IgG1, hit from panning; parental mAb) VH: EVQLLESGGGLVQPGGSLRLSCAASGFTFSSYEMNWVRQAPGKGLEWVSGISWNSGSIGYADSVKGRFTISRDNSKNTLYLQMNSLRAEDTAVYYCARSGYSSSWFDPDFDYWGQGTLVTVSS VL: QSVLTQPPSASGTPGQRVTISCTGSSSNIGAGYDVHWYQQLPGTAPKLLIYGNSNRPSGVPDRFSGSKSGTSASLAISGLRSEDEADYYCSSYAGSNPYVVFGGGTKLTVLG | no binding | no binding | 
2 | TPP-17755 (antibody, human IgG1, lambda, V domains shown, also called Samsung; Samsung Prior Art F11) VH: EVQLLESGGGLVQTGGSLRLSCAASGFTFSDYAMSWVRQAPGKGLEWVSWIYYDSGSKYYADSVKGRFTISRDNSKNTLYLQMNSLRAEDTAVYYCAKLNGDFDYWGQGTLVTVSS VL: QSVLTQPPSASGTPGQRVTISCSGSSSNIGNNDVSWYQQLPGTAPKLLIYADSHRPSGVPDRFSGSKSGTSASLAISGLRSEDEADYYCGAWDSSLSGYVFGGGTKLTVLG |  |  | 6.2 nM
3 | TPP-30788 (antibody, human IgG1, kappa, V domains shown, prior art, WO 2020/225400; also called BI clone I; Böhringer (BI) Clone I) VH: EVQLVESGGGLVQPGGSLRLSCAASGFTFSSYYMSWVRQAPGKGLEWVSTIIKSGGYAYYPDSVKDRFTISRDNSKNTLYLQMSSLRAEDTAVYYCVRGGQGAMDYWGQGTTVTVSS VL: EIVLTQSPATLSLSPGERATLSCRASQSIGDYLHWYQQKPGQAPRLLIKYASQSISGIPARFSGSGSGTDFTLTITSLEPEDFAVYYCQQGYSFPYTFGGGTKLEIKR |  |  | 0.098 nM
4 | TPP-23298 (antibody, human IgG4 S228P, lambda, V domains shown) VH: EVQLLESGGGLVQPGGSLRLSCAASGFTFYSYAMSWVRQAPGKGLEWVSAIGTGGDTYYADSVKGRFTISRDNSKNTLYLQMNSLRAEDTAVYYCARRDDYTSRDAFDYWGQGTLVTVSS VL: not shown |  |  | 0.13 nM
5 | TPP-15370 (antibody, human IgG1, lambda, V domains shown, human IgG1; also called IgG1, hit from panning; parental mAb) VH: EVQLLESGGGLVQPGGSLRLSCAASGFTFSSYGMHWVRQAPGKGLEWVSAIGTGGDTYYADSVMGRFTISRDNSKNTLYLQMNSLRAEDTAVYYCARRDDYTSRDAFDVWGQGTLVTVSS VL: not shown | no binding | no binding | 
